Substitutions are numbered along the chain they refer to. Names may count otherwise.
B1: IL-18 variant T34E, N41D, K53N, S55R (ligand)
chain: YFGKLESKLSVIRNLNDQVLFIDQGNRPLFEDMEDSDMRDDAPRTIFIISMYNDRQPRGMAVTISVKSEKISTLSSENKIISFKEMNPPDNIKDTKSDIIFFQRSVPGHDNKMQFESSSYEGYFLASEKERDLFKLILKKEDELGDRSIMFTVQNED
B2: IL-18 variant K53L, S55G (ligand)
chain: B1 chain with E34T, D41N, N53L, R55G
B3: IL-18 variant K53D, S55E (ligand)
chain: B1 chain with E34T, D41N, N53D, R55E
B4: IL-18 variant K53D, S55N, H109I (ligand)
chain: B1 chain with E34T, D41N, N53D, R55N, H109I
B5: IL-18 variant K53S, S55F, T63S, R104K, H109Y (ligand)
chain: B1 chain with E34T, D41N, N53S, R55F, T63S, R104K, H109Y
B6: IL-18 variant K53N, S55H, H109F (ligand)
chain: B1 chain with E34T, D41N, R55H, H109F
B7: IL-18 variant K53L, S55E (ligand)
chain: B1 chain with E34T, D41N, N53L, R55E
B8: IL-18 variant K53H, S55M (ligand)
chain: B1 chain with E34T, D41N, N53H, R55M
B9: IL-18 variant K53D, S55T, H109I (ligand)
chain: B1 chain with E34T, D41N, N53D, R55T, H109I
B10: IL-18 variant K53T, S55G, P107A, H109Q (ligand)
chain: B1 chain with E34T, D41N, N53T, R55G, P107A, H109Q
B11: IL-18 variant K53H, S55G (ligand)
chain: B1 chain with E34T, D41N, N53H, R55G
B12: IL-18 variant K53G, S55V, R104Y, H109N (ligand)
chain: B1 chain with E34T, D41N, N53G, R55V, R104Y, H109N
B13: IL-18 variant K53H, S55M, T63S (ligand)
chain: B1 chain with E34T, D41N, N53H, R55M, T63S
B14: IL-18 variant K53H, S55Y, Q56H (ligand)
chain: B1 chain with E34T, D41N, N53H, R55Y, Q56H
B15: IL-18 variant S36W, D37E, D40F, N41I, K53D, S55N (ligand)
chain: B1 chain with E34T, S36W, D37E, D40F, D41I, N53D, R55N

Biological target: T1, interleukin 18 binding protein (IL-18BP) (UniProt O95998 31-194)
T1 sequence (looked up): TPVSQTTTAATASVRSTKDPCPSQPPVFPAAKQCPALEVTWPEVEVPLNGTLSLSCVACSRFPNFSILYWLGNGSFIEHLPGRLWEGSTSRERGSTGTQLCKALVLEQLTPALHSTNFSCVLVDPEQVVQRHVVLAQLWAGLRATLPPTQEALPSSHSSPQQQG
Experiment: cell-based or functional assay

Row | Binder | HEK-Blue activity, +100 nM BP, DF-10000 | HEK-Blue activity, +100 nM BP, DF-100,000 | HEK-Blue activity, +100 nM BP, DF-1,000,000 | Ratio (-BP/+BP), DF-10000 | Ratio (-BP/+BP), DF-100,000 | Ratio (-BP/+BP), DF-1,000,000
1 | B1 | 0.1 | 0.13 | 0.09 | 1.42 | 0.74 | 1.05
2 | B2 | 0.14 | 0.11 | 0.11 | 0.87 | 0.92 | 0.89
3 | B3 | 0.11 | 0.09 | 0.08 | 1.22 | 1.07 | 1.08
4 | B4 | 0.1 | 0.09 | 0.09 | 1.28 | 1.42 | 0.99
5 | B5 | 0.13 | 0.09 | 0.09 | 1.03 | 1 | 0.99
6 | B6 | 0.11 | 0.09 | 0.09 | 1.17 | 1.06 | 1.17
7 | B7 | 0.12 | 0.09 | 0.09 | 1.12 | 1.07 | 1.01
8 | B8 | 0.12 | 0.09 | 0.09 | 1.12 | 1.03 | 1.09
9 | B9 | 0.12 | 0.09 | 0.09 | 1.1 | 0.97 | 0.98
10 | B10 | 0.12 | 0.16 | 0.12 | 1.1 | 0.63 | 0.87
11 | B11 | 0.12 | 0.09 | 0.08 | 1.08 | 1.04 | 1.02
12 | B12 | 0.11 | 0.14 | 0.1 | 1.17 | 0.9 | 1.02
13 | B13 | 0.18 | 0.12 | 0.11 | 0.72 | 0.83 | 0.83
14 | B14 | 0.12 | 0.09 | 0.09 | 1.05 | 1.03 | 0.96
15 | B15 | 0.2 | 0.13 | 0.12 | 0.68 | 1.07 | 1.05

Biological target: T2, IL-18 receptors on HEK-Blue IL-18 reporter cells (UniProt Q13478 19-541; O95256 20-599, limits assumed)
T2 sequence (looked up) 1: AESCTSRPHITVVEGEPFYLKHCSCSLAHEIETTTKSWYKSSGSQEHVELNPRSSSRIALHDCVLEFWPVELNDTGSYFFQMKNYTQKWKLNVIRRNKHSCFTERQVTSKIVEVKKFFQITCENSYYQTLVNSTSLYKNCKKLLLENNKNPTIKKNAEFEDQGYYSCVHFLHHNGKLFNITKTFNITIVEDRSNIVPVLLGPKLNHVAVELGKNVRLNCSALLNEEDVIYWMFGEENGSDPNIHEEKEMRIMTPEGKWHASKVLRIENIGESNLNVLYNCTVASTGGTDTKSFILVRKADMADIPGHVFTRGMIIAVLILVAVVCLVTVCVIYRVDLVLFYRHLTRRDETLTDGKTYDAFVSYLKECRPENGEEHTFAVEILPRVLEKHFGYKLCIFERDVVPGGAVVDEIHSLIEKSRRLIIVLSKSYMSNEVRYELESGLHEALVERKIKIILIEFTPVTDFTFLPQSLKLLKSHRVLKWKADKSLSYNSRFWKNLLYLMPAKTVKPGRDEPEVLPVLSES
T2 sequence (looked up) 2: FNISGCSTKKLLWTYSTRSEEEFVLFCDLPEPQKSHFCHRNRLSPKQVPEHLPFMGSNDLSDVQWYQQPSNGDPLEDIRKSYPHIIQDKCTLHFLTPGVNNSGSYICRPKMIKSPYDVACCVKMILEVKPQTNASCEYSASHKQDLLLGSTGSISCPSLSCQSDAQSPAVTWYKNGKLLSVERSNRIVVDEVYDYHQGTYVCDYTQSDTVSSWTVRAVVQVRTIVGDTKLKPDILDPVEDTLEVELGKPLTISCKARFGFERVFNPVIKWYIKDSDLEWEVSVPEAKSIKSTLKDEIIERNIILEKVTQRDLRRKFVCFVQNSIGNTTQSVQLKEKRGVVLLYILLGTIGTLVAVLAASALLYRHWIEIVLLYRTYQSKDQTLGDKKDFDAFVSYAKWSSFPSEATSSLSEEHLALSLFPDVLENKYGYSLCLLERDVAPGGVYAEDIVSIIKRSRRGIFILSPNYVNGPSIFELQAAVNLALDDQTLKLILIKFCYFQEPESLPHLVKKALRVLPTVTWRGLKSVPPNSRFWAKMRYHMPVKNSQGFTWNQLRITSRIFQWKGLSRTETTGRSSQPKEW
Experiment: cell-based or functional assay

Row | Binder | HEK-Blue activity, No BP, DF-10000 | HEK-Blue activity, No BP, DF-100,000 | HEK-Blue activity, No BP, DF-1,000,000
16 | B1 | 0.14 | 0.1 | 0.09
17 | B2 | 0.12 | 0.1 | 0.09
18 | B3 | 0.13 | 0.09 | 0.09
19 | B4 | 0.13 | 0.12 | 0.09
20 | B5 | 0.14 | 0.09 | 0.09
21 | B6 | 0.13 | 0.1 | 0.1
22 | B7 | 0.14 | 0.1 | 0.09
23 | B8 | 0.13 | 0.1 | 0.09
24 | B9 | 0.13 | 0.09 | 0.08
25 | B10 | 0.13 | 0.1 | 0.11
26 | B11 | 0.13 | 0.1 | 0.08
27 | B12 | 0.13 | 0.12 | 0.1
28 | B13 | 0.13 | 0.1 | 0.09
29 | B14 | 0.12 | 0.1 | 0.09
30 | B15 | 0.13 | 0.14 | 0.13

Source: patent US20240182536A1 (MURAL ONCOLOGY, published 2024)
